Reference: patent US20220153852A1 (IBIO, published 2022)

Columns and labels:
[1] = target: T1, recombinant cynomolgus monkey (cyno) CD25 (cynomolgus monkey, UniProt H6WS54 22-213); assay: ratio of the ELISA IC50 on cyno CD25 to that on human CD25
T1 sequence: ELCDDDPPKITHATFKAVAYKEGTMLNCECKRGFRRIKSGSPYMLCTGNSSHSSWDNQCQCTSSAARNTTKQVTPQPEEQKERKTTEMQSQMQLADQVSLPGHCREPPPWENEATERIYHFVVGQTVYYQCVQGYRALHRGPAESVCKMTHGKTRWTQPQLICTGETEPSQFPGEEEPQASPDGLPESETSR
Procedure: (§1) To test for binding to recombinant cynomolgus monkey (cyno) CD25, microtiter plates were coated with 80 ul of 1 ug/ml Cyno CD25 in 50 mM sodium carbonate pH 9.6) at 4° C. overnight. The next day, remove the protein from the wells and block with 200 ul PBS/0.1% BSA/0.05% tween20. The plate was incubated for 1 hour at room temperature. The antibodies starting at 25 nM and 3 fold serially were diluted in PBT buffer and added to the plate for incubation at RT for 1 hour. The plate was then washed and then 1:2500 dilution of HRP conjugate anti-Fab antibody was added. The plate was washed 5-10 times with PBS/tween20 to remove non-specific binders. TMB perxidase substrate and peroxidase solution were added and incubated for the time needed to develop with 80 uL of ELISA stop solution added at the end. OD measurements were then taken at […] using a plate reader (SpectraMax iD3 Plate Reader, Molecular Devices).
(§2) The ratio is indicative of a preference in binding to either cyno or human CD25.

[2] = target: T2, CD25 on CD25-expressing human cells (SUDHL-1, SR786, regulatory T cells) (human, UniProt P01589 22-272); assay: cell-based or functional assay
T2 sequence (looked up): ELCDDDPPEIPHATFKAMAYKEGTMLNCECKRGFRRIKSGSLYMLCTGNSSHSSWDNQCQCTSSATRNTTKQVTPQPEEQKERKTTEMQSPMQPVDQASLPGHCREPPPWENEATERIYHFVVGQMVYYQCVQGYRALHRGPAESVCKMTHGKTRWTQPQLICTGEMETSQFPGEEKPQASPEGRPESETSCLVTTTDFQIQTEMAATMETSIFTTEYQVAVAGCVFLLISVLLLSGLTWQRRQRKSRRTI

[3] = target: T1, recombinant cynomolgus monkey (cyno) …; assay: ELISA on coated cyno CD25, OD450, curve fit
Procedure: as §1, §2

[4] = target: T3, human CD25 (ELISA antigen) (human, UniProt P01589 22-213, limits assumed); assay: ELISA on human CD25, OD450, curve fit
T3 construct: The ELISA protocol is described only for cyno CD25; the human antigen's construct is not described
T3 sequence (looked up): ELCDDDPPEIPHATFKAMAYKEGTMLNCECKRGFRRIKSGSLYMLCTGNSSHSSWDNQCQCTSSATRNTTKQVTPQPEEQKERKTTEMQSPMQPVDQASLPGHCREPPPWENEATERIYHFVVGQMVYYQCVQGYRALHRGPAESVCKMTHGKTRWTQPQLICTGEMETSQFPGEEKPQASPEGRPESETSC

Binder | Cyno/Human [1] | Treg ADCC EC50 [2] | Top [3] | Top [4]
D11 (original or parental) (antibody, V domains shown, also called parental D11; original D11) VH: QIQLQQPGAELVRPGVSLKISCKGSGYTFTDYAMHWVRQSHAKSLEWIGVISTYSGDAIYNQKFKGKATMTVDKSSSTAYLELARLTSDDSAIYYCARGVTFDYWGQGTTVTVSS VL: DIQMTQTTSSLSASLGDRVTITCRASQDISNYLEWYQQKQGKSPQLLVYNAKTLAEGVPSRFSGSGSGTQFSLKINSLQPEDFGSYYCQHHYDTPYTFGGGTKLEIK | 1.3 | 0.0135 µg/mL | 3.01 | 3.12
hD11-H3-L2 (hD11-H3h-L2) (antibody, V domains shown) VH: QVQLVQSGAEVKKPGASLKISCKGSGYTFTDYAMHWVRQAPGQGLEWIGVISTYSGDAIYAQKFQGRATMTVDTSTSTAYLELSSLRSEDTAVYYCARGVTFDYWGQGTTVTVSS VL: DIQMTQSPSSLSASVGDRVTITCRASQDISNYLEWYQQKPGKAPKLLVYNAKTLAEGVPSRFSGSGSGTDFTLTISSLQPEDFGTYYCQHHYDTPYTFGQGTKLEIK | – | 0.0048 µg/mL | – | –
hD11-H2-L1 (antibody, V domains shown) VH: QVQLVQSGAEVKKPGASVKVSCKGSGYTFTDYAMHWVRQAPGQGLEWMGVISTYSGDAIYAQKFQGRVTMTVDTSTSTAYMELSSLRSEDTAVYYCARGVTFDYWGQGTTVTVSS VL: DIQMTQSPSSLSASVGDRVTITCRASQDISNYLEWYQQKPGKAPKLLIYNAKTLAEGVPSRFSGSGSGTDFTLTISSLQPEDFATYYCQHHYDTPYTFGQGTKLEIK | – | 0.0178 µg/mL | – | –
hD11-H2b-L1 (antibody, V domains shown) VH: QVQLVQSGAEVKKPGASVKVSCKGSGYTFTDYAMHWVRQAPGQGLEWMGVISTYSGDAIYAQKFQGRVTMTVDKSTSTAYMELSSLRSEDTAVYYCARGVTFDYWGQGTTVTVSS VL: DIQMTQSPSSLSASVGDRVTITCRASQDISNYLEWYQQKPGKAPKLLIYNAKTLAEGVPSRFSGSGSGTDFTLTISSLQPEDFATYYCQHHYDTPYTFGQGTKLEIK | – | 0.0089 µg/mL | – | –
hD11-H2b-L2 (antibody, V domains shown) VH: QVQLVQSGAEVKKPGASVKVSCKGSGYTFTDYAMHWVRQAPGQGLEWMGVISTYSGDAIYAQKFQGRVTMTVDKSTSTAYMELSSLRSEDTAVYYCARGVTFDYWGQGTTVTVSS VL: DIQMTQSPSSLSASVGDRVTITCRASQDISNYLEWYQQKPGKAPKLLVYNAKTLAEGVPSRFSGSGSGTDFTLTISSLQPEDFGTYYCQHHYDTPYTFGQGTKLEIK | – | 0.0145 µg/mL | – | –
hD11-H3b-L1 (antibody, V domains shown) VH: QVQLVQSGAEVKKPGASLKISCKGSGYTFTDYAMHWVRQAPGQGLEWIGVISTYSGDAIYAQKFQGRATMTVDKSTSTAYLELSSLRSEDTAVYYCARGVTFDYWGQGTTVTVSS VL: DIQMTQSPSSLSASVGDRVTITCRASQDISNYLEWYQQKPGKAPKLLIYNAKTLAEGVPSRFSGSGSGTDFTLTISSLQPEDFATYYCQHHYDTPYTFGQGTKLEIK | – | 0.0317 µg/mL | – | –
hD11-H1-L2 (antibody, V domains shown, Humanized variant of D11 (parental clone carries human IgG1)) VH: QVQLVQSGAEVKKPGASVKVSCKASGYTFTDYAMHWVRQAPGQGLEWMGVISTYSGDAIYAQKFQGRVTMTRDTSTSTVYMELSSLRSEDTAVYYCARGVTFDYWGQGTTVTVSS VL: DIQMTQSPSSLSASVGDRVTITCRASQDISNYLEWYQQKPGKAPKLLVYNAKTLAEGVPSRFSGSGSGTDFTLTISSLQPEDFGTYYCQHHYDTPYTFGQGTKLEIK | 42.4 | 0.0467 µg/mL | 3.04 | 3.1
hD11-H1-L1 (antibody, V domains shown) VH: QVQLVQSGAEVKKPGASVKVSCKASGYTFTDYAMHWVRQAPGQGLEWMGVISTYSGDAIYAQKFQGRVTMTRDTSTSTVYMELSSLRSEDTAVYYCARGVTFDYWGQGTTVTVSS VL: DIQMTQSPSSLSASVGDRVTITCRASQDISNYLEWYQQKPGKAPKLLIYNAKTLAEGVPSRFSGSGSGTDFTLTISSLQPEDFATYYCQHHYDTPYTFGQGTKLEIK | – | 0.0206 µg/mL | – | –
hD11-H3b-L2 (antibody, V domains shown) VH: QVQLVQSGAEVKKPGASLKISCKGSGYTFTDYAMHWVRQAPGQGLEWIGVISTYSGDAIYAQKFQGRATMTVDKSTSTAYLELSSLRSEDTAVYYCARGVTFDYWGQGTTVTVSS VL: DIQMTQSPSSLSASVGDRVTITCRASQDISNYLEWYQQKPGKAPKLLVYNAKTLAEGVPSRFSGSGSGTDFTLTISSLQPEDFGTYYCQHHYDTPYTFGQGTKLEIK | – | 0.0077 µg/mL | – | –
hD11-H2-L2 (antibody, V domains shown) VH: QVQLVQSGAEVKKPGASVKVSCKGSGYTFTDYAMHWVRQAPGQGLEWMGVISTYSGDAIYAQKFQGRVTMTVDTSTSTAYMELSSLRSEDTAVYYCARGVTFDYWGQGTTVTVSS VL: DIQMTQSPSSLSASVGDRVTITCRASQDISNYLEWYQQKPGKAPKLLVYNAKTLAEGVPSRFSGSGSGTDFTLTISSLQPEDFGTYYCQHHYDTPYTFGQGTKLEIK | – | 0.0133 µg/mL | – | –
hD11-H3-L1 (hD11-H3h-L1) (antibody, V domains shown) VH: QVQLVQSGAEVKKPGASLKISCKGSGYTFTDYAMHWVRQAPGQGLEWIGVISTYSGDAIYAQKFQGRATMTVDTSTSTAYLELSSLRSEDTAVYYCARGVTFDYWGQGTTVTVSS VL: DIQMTQSPSSLSASVGDRVTITCRASQDISNYLEWYQQKPGKAPKLLIYNAKTLAEGVPSRFSGSGSGTDFTLTISSLQPEDFATYYCQHHYDTPYTFGQGTKLEIK | – | 0.0683 µg/mL | – | –
7G7B6 (antibody, V domains shown) VH: EVQLVESGGDLVQPRGSLKLSCAASGFTFSSYGMSWVRQTPDKRLELVATINGYGDTTYYPDSVKGRFTISRDNAKNTLYLQMSSLKSEDTAMYFCARDRDYGNSYYYALDYWGQGTSVTVSS VL: QIVLSQSPAILSASPGERVTMTCRASSSVSFMHWLQQKPGSSPKPWIYATSNLASGVSARFSGSGSGTSYSLTITRVEAEDAATYYCQQWSSNPPAFGGGTKLEIK | 1.8 | 0.0194 µg/mL | 2.96 | 3.12
